# Laboratory results taken from PMC10511449, “Custom tuning of Rieske oxygenase reactivity” (Nature Communications, 2023).
# T1: phthalate dioxygenase (PDO) (Comamonas testosteroni, UniProt B7WQT1)
# T1 construct: gene CtesDRAFT_PD2022; codon-optimized, MBP tag removed with TEV protease, pMCSG9, E. coli C41(DE3); authors use structure PDB 7V25 (earlier work) for PDO residues
# T1 sequence (B7WQT1 1-439): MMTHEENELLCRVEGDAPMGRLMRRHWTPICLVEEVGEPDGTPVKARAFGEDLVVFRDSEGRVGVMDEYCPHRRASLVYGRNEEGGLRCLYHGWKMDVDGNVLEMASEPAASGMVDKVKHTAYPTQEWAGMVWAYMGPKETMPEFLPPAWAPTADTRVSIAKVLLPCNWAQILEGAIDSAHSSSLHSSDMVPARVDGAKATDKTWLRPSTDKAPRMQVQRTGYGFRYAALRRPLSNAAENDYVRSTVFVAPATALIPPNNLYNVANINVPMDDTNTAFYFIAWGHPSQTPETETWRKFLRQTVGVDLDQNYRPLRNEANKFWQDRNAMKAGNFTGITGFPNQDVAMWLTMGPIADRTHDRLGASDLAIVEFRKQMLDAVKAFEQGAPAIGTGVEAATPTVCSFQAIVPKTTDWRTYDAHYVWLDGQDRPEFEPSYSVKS
# Assays:
# [1] = target: T1, phthalate dioxygenase (PDO); experiment: LC-MS product detection; format: biochemical; settings: VanB reductase, 2 mM substrate, 500 µM NADH, 100 µM ferrous ammonium sulfate, 30 °C
# purified protein [2] = substrate: Cc1ccc(C(=O)O)cc1; experiment: purified protein; settings: apparent; VanB reductase (4:1), 500 µM NADH, O2, 100 µM ferrous ammonium sulfate
# purified protein [3] = substrate: O=C(O)c1ccc(O)cc1; experiment: purified protein; settings: apparent; VanB reductase (4:1), 500 µM NADH, O2, 100 µM ferrous ammonium sulfate
# [4] = substrate: CC(C)c1ccc(C(=O)O)cc1; experiment: LC-MS product formation, Michaelis-Menten; format: biochemical, Comamonas testosteroni; settings: apparent; VanB reductase (4:1), 500 µM NADH, O2, 100 µM ferrous ammonium sulfate
# Excerpt: (§1) LC-MS product formation, Michaelis-Menten on TsaM (p-toluenesulfonate methyl-monooxygenase)
# [5] = substrate: CCc1ccc(C(=O)O)cc1; experiment: LC-MS product formation, Michaelis-Menten; format: biochemical, Comamonas testosteroni; settings: apparent; VanB reductase (4:1), 500 µM NADH, O2, 100 µM ferrous ammonium sulfate
# Excerpt: as §1
# [6] = substrate: CNc1ccc(C(=O)O)cc1; experiment: LC-MS product formation, Michaelis-Menten; format: biochemical, Comamonas testosteroni; settings: apparent; VanB reductase (4:1), 500 µM NADH, O2, 100 µM ferrous ammonium sulfate
# Excerpt: as §1
# [7] = substrate: COc1ccc(C(=O)O)cc1; experiment: LC-MS product formation, Michaelis-Menten; format: biochemical, Comamonas testosteroni; settings: apparent; VanB reductase (4:1), 500 µM NADH, O2, 100 µM ferrous ammonium sulfate
# Excerpt: as §1
# [8] = substrate: CSc1ccc(C(=O)O)cc1; experiment: LC-MS product formation, Michaelis-Menten; format: biochemical, Comamonas testosteroni; settings: apparent; VanB reductase (4:1), 500 µM NADH, O2, 100 µM ferrous ammonium sulfate
# Excerpt: as §1
# [9] = substrate: Cc1ccc(N)cc1; experiment: LC-MS product formation, Michaelis-Menten; format: biochemical, Comamonas testosteroni; settings: apparent; VanB reductase (4:1), 500 µM NADH, O2, 100 µM ferrous ammonium sulfate
# Excerpt: as §1
# [10] = substrate: Cc1ccc(S(=O)(=O)O)cc1; experiment: LC-MS product formation, Michaelis-Menten; format: biochemical, Comamonas testosteroni; settings: apparent; VanB reductase (4:1), 500 µM NADH, O2, 100 µM ferrous ammonium sulfate
# Excerpt: as §1
# [11] = substrate: Cc1ccc([N+](=O)[O-])cc1; experiment: LC-MS product formation, Michaelis-Menten; format: biochemical, Comamonas testosteroni; settings: apparent; VanB reductase (4:1), 500 µM NADH, O2, 100 µM ferrous ammonium sulfate
# Excerpt: as §1
# [12] = substrate: Cc1cccc(C(=O)O)c1; experiment: LC-MS product formation, Michaelis-Menten; format: biochemical, Comamonas testosteroni; settings: apparent; VanB reductase (4:1), 500 µM NADH, O2, 100 µM ferrous ammonium sulfate
# Excerpt: as §1
# [13] = substrate: O=C(O)c1ccccc1; experiment: LC-MS product formation, Michaelis-Menten; format: biochemical, Comamonas testosteroni; settings: apparent; VanB reductase (4:1), 500 µM NADH, O2, 100 µM ferrous ammonium sulfate
# Excerpt: as §1
# [14] = substrate: O=S(=O)(O)c1ccc(O)cc1; experiment: LC-MS product formation, Michaelis-Menten; format: biochemical, Comamonas testosteroni; settings: apparent; VanB reductase (4:1), 500 µM NADH, O2, 100 µM ferrous ammonium sulfate
# Excerpt: as §1
# [15] = substrate: O=S(=O)(O)c1ccccc1; experiment: LC-MS product formation, Michaelis-Menten; format: biochemical, Comamonas testosteroni; settings: apparent; VanB reductase (4:1), 500 µM NADH, O2, 100 µM ferrous ammonium sulfate
# Excerpt: as §1
molecule,measurement,setting,value
"O=C(O)c1ccccc1 [compound 38, benzoate]",LC-MS product detection,[1],PDO-VanB system catalyzes a dioxygenation reaction to transform benzoate
"TsaM (p-toluenesulfonate methyl-monooxygenase) (Comamonas testosteroni) (protein, codon-optimized, N-terminal His-tag with TEV site, E. coli C41(DE3), trimer ~120 kDa; assayed with VanB as non-native reductase) MFIRNCWYVAAWDTEIPAEGLFHRTLLNEPVLLYRDTQGRVVALENRCCHRSAPLHIGRQEGDCVRCLYHGLKFNPSGACVEIPGQEQIPPKTCIKSYPVVERNRLVWIWMGDPARANPDDIVDYFWHDSPEWRMKPGYIHYQANYKLIVDNLLDFTHLAWVHPTTLGTDSAASLKPVIERDTTGTGKLTITRWYLNDDMSNLHKGVAKFEGKADRWQIYQWSPPALLRMDTGSAPTGTGAPEGRRVPEAVQFRHTSIQTPETETTSHYWFCQARNFDLDDEALTEKIYQGVVVAFEEDRTMIEAHEKILSQVPDRPMVPIAADAGLNQGRWLLDRLLKAENGGTAP",Km,purified protein [2],13 ± 1.3 µM
same,Vmax,purified protein [2],11 µM/min
same,kcat,purified protein [2],0.0933 s⁻¹
same,kcat/Km,purified protein [2],7200 M⁻¹ s⁻¹
same,Km,purified protein [3],86 ± 2.1 µM
same,Vmax,purified protein [3],1 µM/min
same,kcat,purified protein [3],0.00833 s⁻¹
same,kcat/Km,purified protein [3],98 M⁻¹ s⁻¹
same,Km,[4],150 ± 6.5 µM
same,Vmax,[4],4.1 µM/min
same,kcat,[4],0.035 ± 0.00433 s⁻¹
same,kcat/Km,[4],230 ± 24 M⁻¹ s⁻¹
same,Km,[5],65 ± 3.8 µM
same,Vmax,[5],7.3 µM/min
same,kcat,[5],0.06 ± 0.00567 s⁻¹
same,kcat/Km,[5],930 ± 95 M⁻¹ s⁻¹
same,Km,[6],240 ± 11 µM
same,Vmax,[6],3.2 µM/min
same,kcat,[6],0.0267 ± 0.00217 s⁻¹
same,kcat/Km,[6],110 ± 8.8 M⁻¹ s⁻¹
same,Km,[7],180 ± 8.9 µM
same,Vmax,[7],3.3 µM/min
same,kcat,[7],0.0267 ± 0.00417 s⁻¹
same,kcat/Km,[7],150 ± 20 M⁻¹ s⁻¹
same,Km,[8],240 ± 2.5 µM
same,Vmax,[8],2.6 µM/min
same,kcat,[8],0.0217 ± 0.00267 s⁻¹
same,kcat/Km,[8],88 ± 14 M⁻¹ s⁻¹
same,Km,[9],110 ± 7.7 µM
same,Vmax,[9],3.2 µM/min
same,kcat,[9],0.0267 ± 0.00233 s⁻¹
same,kcat/Km,[9],230 ± 21 M⁻¹ s⁻¹
same,Km,[10],3.8 ± 0.60 µM
same,Vmax,[10],6.2 µM/min
same,kcat,[10],0.05 ± 0.00367 s⁻¹
same,kcat/Km,[10],13000 ± 2200 M⁻¹ s⁻¹
same,Km,[11],230 ± 12 µM
same,Vmax,[11],2.9 µM/min
same,kcat,[11],0.0233 ± 0.00417 s⁻¹
same,kcat/Km,[11],100 ± 16 M⁻¹ s⁻¹
same,Km,[12],100 ± 4.2 µM
same,Vmax,[12],3.1 µM/min
same,kcat,[12],0.0267 ± 0.00617 s⁻¹
same,kcat/Km,[12],260 ± 50 M⁻¹ s⁻¹
same,Km,[13],80 ± 1.5 µM
same,Vmax,[13],1 µM/min
same,kcat,[13],0.00867 ± 0.00217 s⁻¹
same,kcat/Km,[13],99 ± 20 M⁻¹ s⁻¹
same,Km,[14],80 ± 2.8 µM
same,Vmax,[14],1.3 µM/min
same,kcat,[14],0.011 ± 0.00167 s⁻¹
same,kcat/Km,[14],130 ± 22 M⁻¹ s⁻¹
same,Km,[15],76 ± 3.6 µM
same,Vmax,[15],1.1 µM/min
same,kcat,[15],0.00967 ± 0.00333 s⁻¹
same,kcat/Km,[15],120 ± 47 M⁻¹ s⁻¹
